Source: publication PMC5505701, “Somatostatin binds to the human amyloid β peptide and favors the formation of distinct oligomers” (eLife, 2017)

B1: 14-3-3 protein epsilon: human brain protein (protein, UniProt P62258 1-255, looked up)
14-3-3 protein epsilon: MDDREDLVYQAKLAEQAERYDEMVESMKKVAGMDVELTVEERNLLSVAYKNVIGARRASWRIISSIEQKEENKGGEDKLKMIREYRQMVETELKLICCDILDVLDKHLIPAANTGESKVFYYKMKGDYHRYLAEFATGNDRKEAAENSLVAYKAASDIAMTELPPTHPIRLGLALNFSVFYYEILNSPDRACRLAKAAFDDAIAELDTLSEESYKDSTLIMQLLRDNLTLWTSDMQGDGEEQNKEALQDVEDENQ
B2: Peroxiredoxin-5, mitochondrial: human brain protein (protein, UniProt P30044 53-214, looked up)
Peroxiredoxin-5, mitochondrial: MAPIKVGDAIPAVEVFEGEPGNKVNLAELFKGKKGVLFGVPGAFTPGCSKTHLPGFVEQAEALKAKGVQVVACLSVNDAFVTGEWGRAHKAEGKVRLLADPTGAFGKETDLLLDDSLVSIFGNRRLKRFSMVVQDGIVKALNVEPDGTGLTCSLAPNIISQL

What was measured:
[1] = test system: oligomeric versus monomeric Aβ1-42 (Aβ1-42-biotin bait); test: Affinity capture interactome Experiment III (oAβ1-42-biotin vs mAβ1-42-biotin)
[2] = test system: oligomeric Aβ1-42 (oAβ1-42-biotin bait); test: Affinity capture interactome Experiment II (C-terminally tethered oAβ1-42-biotin vs biotin)

Row | Molecule | 128/131 ([1]; Experiment III, oAbeta 1-42 (TMT 128) versus mAbeta 1-42 (TMT 131), replicate channel 128) | 130/131 ([1]; Experiment III, oAbeta 1-42 (TMT 130) versus mAbeta 1-42 (TMT 131), replicate channel 130) | 126/131 ([2]; Experiment II, oAbeta 1-42-biotin (TMT 126) versus biotin (TMT 131), replicate channel 126) | 128/131 ([2]; Experiment II, oAbeta 1-42-biotin (TMT 128) versus biotin (TMT 131), replicate channel 128) | 130/131 ([2]; Experiment II, oAbeta 1-42-biotin (TMT 130) versus biotin (TMT 131), replicate channel 130) | Experiment III oAβ1-42-B/mAβ1-42-B Ratio ([1]; oligomeric versus monomeric bait, human frontal lobe digitonin extract, TMT, pH 8.0, 4°C overnight) | Experiment II oAβ1-42-B/B Ratio ([2]; enrichment relative to biotin-only negative control, human frontal lobe digitonin extract, TMT, pH 8.0, 4°C overnight)
1 | B1 | 1.113 | 0.949 | 1.157 | 1.411 | 1.195 | – | –
2 | B2 | – | – | – | – | – | 5.90 | 2.15
